This is an account of results in article PMC2804221.

The target of test [1] is GLP-1 receptor E127A (human) (UniProt P43220).
Test [2] deals with GLP-1 receptor E127Q (human) (UniProt P43220).
Test [3] has as its target GLP-1 receptor E128A (human) (UniProt P43220).
Test [4] concerns the target GLP-1 receptor E128Q (human) (UniProt P43220).
The target in test [5] is GLP-1 receptor E68A (human) (UniProt P43220).
The target in test [6] is GLP-1 receptor L123A (human) (UniProt P43220).
Test [7] deals with GLP-1 receptor L32A (human) (UniProt P43220).
GLP-1 receptor L32A (human), sequence (P43220 24-463 L32A): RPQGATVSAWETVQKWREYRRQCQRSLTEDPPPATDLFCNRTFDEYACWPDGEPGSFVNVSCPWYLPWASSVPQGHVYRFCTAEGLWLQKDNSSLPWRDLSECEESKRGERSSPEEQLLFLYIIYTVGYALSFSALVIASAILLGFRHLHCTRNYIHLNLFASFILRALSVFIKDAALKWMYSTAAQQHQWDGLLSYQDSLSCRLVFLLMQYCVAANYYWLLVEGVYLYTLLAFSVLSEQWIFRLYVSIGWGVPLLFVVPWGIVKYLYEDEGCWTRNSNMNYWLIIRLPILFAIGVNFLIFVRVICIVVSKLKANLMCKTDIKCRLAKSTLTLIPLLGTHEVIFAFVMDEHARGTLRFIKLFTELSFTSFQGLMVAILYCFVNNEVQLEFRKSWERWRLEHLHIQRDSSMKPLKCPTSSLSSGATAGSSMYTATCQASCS
The target in test [8] is GLP-1 receptor P90A (human) (UniProt P43220).
GLP-1 receptor P90A (human), sequence (P43220 24-463 P90A): as the sequence (P43220 24-463 L32A) above, with A9L, P67A counted along it
Test [9] deals with GLP-1 receptor R121A (human) (UniProt P43220).
GLP-1 receptor R121A (human), sequence (P43220 24-463 R121A): as the sequence (P43220 24-463 L32A) above, with A9L, R98A counted along it
For test [10], the target named is GLP-1 receptor T35A (human) (UniProt P43220).
GLP-1 receptor T35A (human), sequence (P43220 24-463 T35A): as the sequence (P43220 24-463 L32A) above, with A9L, T12A counted along it
Test [11] concerns the target GLP-1 receptor V36A (human) (UniProt P43220).
Test [12] addresses Wild-type human GLP-1 receptor, full length (human) (UniProt P43220).
Test [13] addresses GLP-1 receptor E127A (human) (UniProt P43220). Kind of test: radioligand binding.
Test [14] addresses GLP-1 receptor E127Q (human) (UniProt P43220). Kind of test: radioligand binding.
Test [15] has as its target GLP-1 receptor E128A (human) (UniProt P43220). Kind of test: radioligand binding.
Test [16] concerns the target GLP-1 receptor E128Q (human) (UniProt P43220). The test is described as follows: radioligand binding.
For test [17], the target named is GLP-1 receptor E68A (human) (UniProt P43220). The test is described as follows: radioligand binding.
For test [18], the target named is GLP-1 receptor L123A (human) (UniProt P43220). Kind of test: radioligand binding.
The target in test [19] is GLP-1 receptor L32A (human) (UniProt P43220). The test is described as follows: radioligand binding.
The target of test [20] is GLP-1 receptor P90A (human) (UniProt P43220). Kind of test: radioligand binding.
The target in test [21] is GLP-1 receptor R121A (human) (UniProt P43220). The test is described as follows: radioligand binding.
In test [22] the target is GLP-1 receptor T35A (human) (UniProt P43220). Kind of test: radioligand binding.
The target of test [23] is GLP-1 receptor V36A (human) (UniProt P43220). Kind of test: radioligand binding.
GLP-1 receptor V36A (human), sequence (P43220 24-463 V36A): as the sequence (P43220 24-463 L32A) above, with A9L, V13A counted along it
The target in test [24] is Wild-type human GLP-1 receptor, full length (human) (UniProt P43220). Kind of test: radioligand binding.
Wild-type human GLP-1 receptor, full length (human), sequence (P43220 24-463): as the sequence (P43220 24-463 L32A) above, with A9L counted along it

pIC50: −log10 of the molar value.

GLP-1 receptor E128A (human), sequence (P43220 24-463 E128A): as the sequence (P43220 24-463 L32A) above, with A9L, E105A counted along it
GLP-1 receptor E128Q (human), sequence (P43220 24-463 E128Q): as the sequence (P43220 24-463 L32A) above, with A9L, E105Q counted along it
GLP-1 receptor E127Q (human), sequence (P43220 24-463 E127Q): as the sequence (P43220 24-463 L32A) above, with A9L, E104Q counted along it
GLP-1 receptor E127A (human), sequence (P43220 24-463 E127A): as the sequence (P43220 24-463 L32A) above, with A9L, E104A counted along it
GLP-1 receptor L123A (human), sequence (P43220 24-463 L123A): as the sequence (P43220 24-463 L32A) above, with A9L, L100A counted along it
GLP-1 receptor E68A (human), sequence (P43220 24-463 E68A): as the sequence (P43220 24-463 L32A) above, with A9L, E45A counted along it

As to “Exendin-4 (from UniProt P26349 48-87) (peptide)”, the EC50 of cAMP production, transiently transfected HEK293 cells in test [1] was 0.011 nM; in [2], 0.0068 nM; in [3] it was 0.025 nM; in [4] it was 0.008 nM; in test [5] it was 0.0095 nM; in test [6] it was 0.0095 nM. The EC50 of cAMP production, transiently transfected HEK293 cells in test [7] was determined as 0.052 nM; in test [8], 0.03 nM; in test [9] it was 0.044 nM; in test [10] it was 0.023 nM; in [11], 0.036 nM; in test [12], 0.0055 nM. The negative-log IC50 (pIC50) in test [13] is 8.28; in [14], 9.09; in [15], 8.74; in [16], 9.35; in test [17] it was 9.32; in test [18], 9.48. The negative logarithm of the IC50 (pIC50) in [19] is 8.27; in test [20], 8.80; in test [21], 8.92; in [22] it was 9.36; in [23], 9.01; in test [24] it was 9.12.

What is called pIC50 is the negative decadic logarithm of the IC50, by convention in mol/L. Higher therefore signals a low IC50.
